Reference: patent publication US20260265379A1

Target: PD-L1 at the surface of transduced cells (UniProt Q9NZQ7)
Assay: flow cytometry, CHO-PD-L1 cells

Chain of PD-L1 at the surface of transduced cells (Q9NZQ7 19-290 limits assumed): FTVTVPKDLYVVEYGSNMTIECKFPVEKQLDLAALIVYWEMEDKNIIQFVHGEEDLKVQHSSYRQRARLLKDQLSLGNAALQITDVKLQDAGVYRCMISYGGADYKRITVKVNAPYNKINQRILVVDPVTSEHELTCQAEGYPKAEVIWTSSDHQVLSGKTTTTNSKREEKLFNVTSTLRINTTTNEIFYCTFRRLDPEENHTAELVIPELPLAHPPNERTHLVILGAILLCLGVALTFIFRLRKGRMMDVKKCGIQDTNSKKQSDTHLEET

Q: How did the MFI at 10 nM turn out when Isotype Durvalumab (antibody) was run?
A: 38000 MFI

Q: And the MFI at 100 nM?
A: 41600 MFI
